According to patent US20110093983A1, “ALGAL GLYCEROL-3 PHOSPHATE ACYLTRANSFERASE” (National Research Council of Canada, priority 2008, published 2011):
“Also recorded” adds a separate entry of the source.

Tests used:
[1] = system: yeast gat1 mutant; assay: Fatty acid composition of TAG and phospholipids from yeast gat1 mutant expressing TpGPAT1; assay type: cell-based, Saccharomyces cerevisiae; conditions: for Proportion of Fatty Acid 16:0 / Proportion of Fatty Acid 16:1 / Proportion of Fatty Acid 18:0 / Proportion of Fatty Acid 18:1 / Proportion of Fatty Acid Sats / Proportion of Fatty Acid Unsats: 3-day induction with 2% galactose, average ± SD, three replicates
Procedure: Yeast cultures were grown at 28° C. in the presence of 2% (w/v) glucose and 1% (w/v) Tergitol NP-40 (Sigma, St. Louis, Mo., US). Expression of the transgene was induced at OD600 nm 0.2 to 0.3 by supplementing galactose to 2% (w/v). At that time, the appropriate FAs were added to a final concentration of 50 or 100 μM in the presence of 1% (w/v) Tergitol NP-40 (Sigma, St. Louis, Mo., US). Yeast cells (20 ml) were harvested after a 3-day incubation, total lipids from yeast homogenates were extracted using the procedure of Schneiter (2005). Separation of neutral lipids and polar lipids was performed by running the thin layer chromatography plates (Si 250-PA, Baker, Phillipsburg, N.J.) in a developing solvent of hexane: ether: acetic acid (70:30:1, v/v) and identified by co-migration with known standards. Spots corresponding to TAG and phospholipid were scraped off the TLC plates and were transmethylated with methanolic HCl and quantified by gas chromatography as described previously. (Zheng and Zou, 2001).
To investigate if the over-expression of TpGPAT has any effect on the fatty acids composition of yeast lipids in vivo, the gall cells harboring TpGPAT or an empty vector as control were induced for 3 days by galactose at 28° C. The total lipids was extracted and then separated into triacylglycerols (TAGS) and phospholipids by TLC for the analysis of fatty acid composition. […] Approximately 12% and 18% increase of 16:0 in phospholipids and triacylglycerols, respectively, turned 16:0 into the most dominant fatty acid in the TpGPAT expressing yeast cells, instead of 16:1 fatty acid in the mutant cells harboring the empty vector. Conversely, the unsaturated fatty acids, 16:1 and 18:1, were reduced to 15% and 21% in these two lipid species. […] Collectively, the results strongly support the finding in the in vitro substrate specificity assay that 16:0 is the most preferred substrate for TpGPAT.

[2] = GPAT activity assay of microsomal membrane fractions from yeast gat1 mutant expressing TpGPAT; assay type: biochemical, Saccharomyces cerevisiae
Procedure: FIG. 2 depicts GPAT activity of TpGPAT1 expressed in yeast gat1 mutant. The microsomal membrane fractions prepared from lysates of the induced yeast cells harboring TpGPAT1 or empty vector pYES2.1 were assayed for GPAT activity with 400 μM [^14C]glycerol 3-phosphate (2.5 nCi/nmol), 45 μM palmitoyl-CoA, 75 mM Tris-HCl, pH 7.5, 1 mM DTT, and 2 mM MgCl2 for 10 min at room temperature. After extraction of the phospholipid products, the radioactivity was measured by scintillation count.
FIG. 3 depicts substrate specificity of TpGPAT1. The microsomal membrane fractions prepared from lysates of the induced yeast cells harboring TpGPAT1 or empty vector pYES2.1 were assayed for GPAT activity with 400 μM [^14C]glycerol 3-phosphate (2.5 nCi/nmol) and different acyl-CoAs as acyl donor. After extraction of the phospholipid products, the radioactivity was measured by scintillation count. […]
Enzyme Assays: GPAT assays were conducted at 30° C. for 10 min. in a 200-pL reaction mixture containing 40 mM Hepes, pH 7.0, 400 pM ^14C-glycerol-3-phosphate (2.5 nCi/nmol), 67.5 pM palmitoyl-CoA and/or stearoyl-CoA or other fatty acyl donors, 1 mM DTT, 2 mM MgCl2, and 2.5 mg/mL BSA unless stated otherwise. […] The formed products were subjected to scintillation counting for radioactivity and thin layer chromatography analysis as described. […]

[3] = system: yeast gat1 mutant; assay: Lipidomic analysis of phospholipids from yeast gat1 transformed with TpGPAT or GAT1, fed EPA or DHA; assay type: cell-based, Saccharomyces cerevisiae; conditions: tandem mass spectrometer lipidomics
Source text: FIG. 4 graphically depicts the results of the lipidomic analysis (fatty acid composition) of the lipids from yeast gat1 mutants transformed with either TpGPAT1 or GAT1. Yeast cells expressing TpGPAT or yeast GAT1 were fed with EPA (20:5) or DHA (22:6) upon induction of the genes. Total lipids from the yeast cells were extracted and subjected to lipidomic analysis using a tandem mass spectrometer. The results are presented as the molar ratio of EPA- or DHA-containing phospholipids (PC, PE, PS, PI) in the total phospholipids.
To further determine the role of TpGPAT in the incorporation of VLGPUFAs into glycerolipids, yeast gat1 strain transformed with TpGPAT or GAT1 under the control of the GAL1 promoter was grown in the presence of EPA (20:5) or DHA (22:6) upon induction of the genes. Phospholipids were extracted and subjected to lipidomic analysis using a tandem mass spectrometer (testing conducted by the Kansas Lipidomics Research Center). […] It was thus concluded that TpGPAT has a role in controlling PUFA accumulation in glycerolipid.

B1: TpGPAT1: membrane-bound glycerol-3-phosphate acyltransferase from T. pseudonana, 674 amino acids, SEQ ID NO:2 (nucleotide SEQ ID NO:1) (protein, listed as Thalassiosira pseudonana)
chain: MGVEKKGTMMSELDYTKAQLAFFYIVVLLSLDMLNPVKIFLHVFPAIKSWHIATFAIACMSYIFIVNLRELLYFATKVFFHSILSIFFNDVTVVGRENIPSHGPVIFTSNHANQFMDGLMIMCTCQRTISYLVADKSWNRPIIGHLAWMMGGVPVKRAQDSACKGTGKISIDLNALAGSDAVINVVGKGTSFTSQIKAGDKIRLPNNAIGIKVESIESDESMSLKVEDGVAEVLSSHPFPEYVTYDILPRIDQKDVYQNVLEKLASGGTIGIFPEGGSHDRTDLLPLKVGVALIAYSELEKDGINVPIVPVGLNYFRAHRFRGKATVEFGSPTYIEPSTLADYKKGGADKRRVCNDLLARIENSMRSVIVSVPDFETLQTIHAARRLYRQDGRNETAEQRQDMGRRFAEGYKRVLLQLGGEPPEEWLSLQSRILAYQKELNELGIRDYQVVGLDHEEVELGSESQGHSKADTVLHRMNVFGHIVHLFVIAVLAALPAMLLNLPVGLASRIYSNRRRKVALAASKVKVKGYDVMLSERVLACIVLVPSLWVVYGLLLSLFTSLDGPSLAVCFTCFPLFSYWSIMATESGMVDIKDLRPYVMRMIPSARRRLAALPATRKALRSDLRAMIKKIGPSLGDIYYEKDLNWQKIQMETKRMSMEELDPAQKDEAAKKEE
Proportion of Fatty Acid 16:0 ([1]; Phospholipids): 31.10 ± 3.78 mol %
Proportion of Fatty Acid 16:1 ([1]; Phospholipids): 34.15 ± 2.74 mol %
Proportion of Fatty Acid 18:0 ([1]; Phospholipids): 8.92 ± 1.49 mol %
Proportion of Fatty Acid 18:1 ([1]; Phospholipids): 25.45 ± 2.25 mol %
Proportion of Fatty Acid Sats ([1]; Phospholipids): 40.02 ± 4.57 mol %
Proportion of Fatty Acid Unsats ([1]; Phospholipids): 59.83 ± 4.61 mol %
Proportion of Fatty Acid 16:0 ([1]; TAG): 41.80 ± 2.17 mol %
Proportion of Fatty Acid 16:1 ([1]; TAG): 29.15 ± 1.61 mol %
Proportion of Fatty Acid 18:0 ([1]; TAG): 9.17 ± 1.22 mol %
Proportion of Fatty Acid 18:1 ([1]; TAG): 18.94 ± 0.99 mol %
Proportion of Fatty Acid Sats ([1]; TAG): 50.97 ± 2.85 mol %
Proportion of Fatty Acid Unsats ([1]; TAG): 48.49 ± 2.44 mol %
Increase of 18:0 versus empty vector ([1]; yeast gat1, both TAG and phospholipids): 3-4%
Reduction of unsaturated fatty acids 16:1 and 18:1 in phospholipids versus empty vector ([1]; yeast gat1, phospholipids): 15%
Increase of 16:0 in triacylglycerols versus empty vector ([1]; yeast gat1, triacylglycerols): ~18%
Reduction of unsaturated fatty acids 16:1 and 18:1 in triacylglycerols versus empty vector ([1]; yeast gat1, triacylglycerols): 21%
Substrate specificity for fatty acyl donors ([2]; different acyl-CoAs as acyl donors (14:0, 16:0, 16:1, 18:0, 18:1, 22:6)): highly specific for 16:0; also recorded: highest activity toward 16:0; also recorded: highly specific for saturated C16 fatty acids
GPAT activity versus control cells transformed with empty pYES2.1 vector ([2]; microsomal membrane fractions, yeast gat1, palmitoyl (16:0)-CoA as acyl donor): about seven
Molar percentage of DHA in phospholipids ([3]; yeast gat1 fed DHA (22:6)): 0.563%
Molar percentage of EPA in phospholipids ([3]; yeast gat1 fed EPA (20:5)): 3.696%
